Laboratory results taken from US20240158537A1.

Biological target: IL-7 receptor (IL-7R), heterodimer of IL-7R alpha (CD127) and common gamma chain (CD132), on primary human T cells (human) (UniProt P16871)
Experiment: cell-based or functional assay

Sequence of IL-7 receptor (IL-7R), heterodimer of IL-7R alpha (CD127) and common gamma chain (CD132), on primary human T cells (human) (P16871 21-459, chain 1 of 2): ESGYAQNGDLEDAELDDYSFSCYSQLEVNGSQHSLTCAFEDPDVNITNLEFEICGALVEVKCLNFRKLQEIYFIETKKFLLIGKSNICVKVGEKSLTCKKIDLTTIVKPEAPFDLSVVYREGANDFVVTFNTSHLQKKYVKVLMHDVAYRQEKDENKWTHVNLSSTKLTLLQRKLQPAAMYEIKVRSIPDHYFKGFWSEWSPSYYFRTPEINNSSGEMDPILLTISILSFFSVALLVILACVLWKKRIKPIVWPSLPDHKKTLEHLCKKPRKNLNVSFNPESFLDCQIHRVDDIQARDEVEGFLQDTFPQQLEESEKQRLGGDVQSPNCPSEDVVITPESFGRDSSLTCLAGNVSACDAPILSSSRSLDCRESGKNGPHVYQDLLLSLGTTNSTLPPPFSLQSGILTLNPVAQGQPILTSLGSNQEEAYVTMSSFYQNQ
Sequence of IL-7 receptor (IL-7R), heterodimer of IL-7R alpha (CD127) and common gamma chain (CD132), on primary human T cells (human) (P31785 23-369, chain 2 of 2, further chain): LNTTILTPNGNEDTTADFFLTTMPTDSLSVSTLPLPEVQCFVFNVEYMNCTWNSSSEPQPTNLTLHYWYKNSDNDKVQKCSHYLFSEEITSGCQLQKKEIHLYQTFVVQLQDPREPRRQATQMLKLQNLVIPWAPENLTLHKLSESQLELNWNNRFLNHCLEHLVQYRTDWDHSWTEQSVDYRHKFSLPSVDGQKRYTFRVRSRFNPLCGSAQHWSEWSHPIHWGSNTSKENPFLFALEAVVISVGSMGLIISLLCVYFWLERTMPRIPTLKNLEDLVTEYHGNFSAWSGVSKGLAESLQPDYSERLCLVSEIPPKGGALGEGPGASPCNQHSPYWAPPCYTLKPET

Avg EC50 (nM) (human pSTAT5), CD4 Memory: 0.005 nM
Avg EC50 (nM) (human pSTAT5), CD4 Naive: 0.005 nM
Avg EC50 (nM) (human pSTAT5), CD4 Treg: 0.015 nM
Avg EC50 (nM) (human pSTAT5), CD8 Memory: 0.006 nM
Avg EC50 (nM) (human pSTAT5), CD8 Naive: 0.006 nM
Substance: Synthetic IL-7 of SEQ ID NO: 3 (M17Nle, M27Nle, N36Hse, M54Nle, M69Nle, D76Hse, E114Hse, M147Nle) (from UniProt P13232 26-177) (ligand)
